In publication PMC7057392 (ACS chemical neuroscience, 2020):

How the values were obtained:
[1] = target: Cys-min α7 nAChR (human α7 nAChR containing only the C128-C142 and C190-C191 cysteines) (human) (UniProt P36544); test: SPR
[2] = target: wild-type human α7 nicotinic acetylcholine receptor (human, UniProt P36544 23-502); test: SPR

Molecule	Kd [1] [µM]	Kd [2] [µM]
PDZ domain of PICK1 (first 126 amino acids of PICK1) (from UniProt Q9NRD5 1-126) (domain or fragment)	2.6	
PDZ domain of PICK1 (first 126 amino acids of PICK1) (domain or fragment, UniProt Q9NRD5 1-126, looked up) MFADLDYDIEEDKLGIPTVPGKVTLQKDAQNLIGISIGGGAQYCPCLYIVQVFDNTPAALDGTVAAGDEITGVNGRSIKGKTKVEVAKMIQEVKGEVTIHYNKLQADPKQGMSLDIVLKKVKHRLV		2.5 ± 0.4
